Laboratory results: paper PMC6163455 (Biomolecules, 2018)

System: CHO-K1 cells
Test: cell fractionation and anti-β-lactamase immunoblotting
Type: cell-based, Chinese hamster
Details: 8 µM, 1.5 h at 37 °C, digitonin cytosol extraction, 4 µg aliquots, anti-β-lactamase antibody, Figure S1
Description: Supplementary Information
Supplementary Figures: β-Lactamase Tools for Establishing Cell Internalization and Cytosolic
Delivery of Cell Penetrating Peptides
Figure S1. Verification of cell penetrating peptides (CPP)-mediated β-lactamase internalization by immunoblotting. MW: molecular weight.
Aliquots (4 µg) of cytosolic and membrane soluble CHO-K1 cell fractions from β-lactamase assays were separated by sodium dodecyl sulfate–polyacrylamide gel electrophoresis (SDS-PAGE) through a 4-12% (w/v) polyacrylamide Bis-Tris gel, transferred to polyvinylidene difluoride (PVDF) membrane, and immunoblotted. β-lactamase conjugated (e.g., 1746_SpyT/SpyC_BLA) or fused (e.g., 1746_BLA recombinant) to 1746c27 and 1746 Phylomer cell penetrating peptides (CPPs) was detected in the cytosolic fraction to varying extents, while TAT-conjugated β-lactamase was predominantly detected in the membrane fraction of cell lysates. […]
delivered into the cytosol by the 1746 CPP. Internalization of unconjugated SpyC_BLA protein was not detected, either on its own (SpyC_BLA (no CPP)) or in the presence of 1746c27 peptide (1746c27, SpyC_BLA), illustrating there is no bystander uptake effect. […]
Aliquots of extracted fractions (4 µg) were separated through a 4–12% Bis-Tris gel (Invitrogen, Carlsbad, CA, USA). Protein expression in the fractions was detected using monoclonal anti-β- […]

B1: 1746_BLA: recombinant fusion of phylomer CPP 1746 with β-lactamase (protein)
chain: MASPLKPKKPKTQEKKKKQPPKPKKPKTQEKKKKQPPKPKRASSGSHHHHHHGATLEVLFQGPGGSHPETLVKVKDAEDQLGARVGYIELDLNSGKILESFRPEERFPMMSTFKVLLCGAVLSRIDAGQEQLGRRIHYSQNDLVEYSPVTEKHLTDGMTVRELCSAAITMSDNTAANLLLTTIGGPKELTAFLHNMGDHVTRLDRWEPELNEAIPNDERDTTTPAAMATTLRKLLTGELLTLASRQQLIDWMEADKVAGPLLRSALPAGWFIADKSGAGERGSRGIIAALGPDGKPSRIVVIYTTGSQATMDERNRQIAEIGASLIKHWQLGSASGTTGATSG
β-lactamase detected in cytosolic and membrane cell fractions (immunoblot): very strong signal in the cytosolic fractions
